B1: A21 (ssDNA)
DNA: AATTAACCCTCACTAAAGGGCGCTTATTTGTTCAGGTTGGTCTTCCTATTATGGTCGAATAAGTTAA
B2: A22 (ssDNA)
DNA: AATTAACCCTCACTAAAGGGCTGAGTCTCAAAACCGCAATACACTGGTTGTATGGTCGAATAAGTTAA

Legend:
[1] = target: Hemagglutinin on intact virus A/Port Chalmers/1/73 (H3N2) (Influenza A virus) (UniProt P03438+P03438); experiment: cell_activity
[2] = target: Influenza hemagglutinin fragment HA91-261 (globular region) (Influenza A virus (A/Port …, UniProt Q1PUD9 SEQ:1-171)); experiment: ELISA; details: tags: N-terminal 6xHis (pQE30, E. coli, Ni-NTA purified)
Chain of Influenza hemagglutinin fragment HA91-261 (globular region) (Influenza A virus (Q1PUD9 107-277): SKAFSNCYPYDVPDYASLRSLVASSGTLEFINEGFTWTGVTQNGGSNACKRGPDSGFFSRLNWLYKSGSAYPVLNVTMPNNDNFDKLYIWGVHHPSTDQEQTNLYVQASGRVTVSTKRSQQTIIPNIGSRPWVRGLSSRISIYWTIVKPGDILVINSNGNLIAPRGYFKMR

Molecule | binding result [2] | also measured
AATTAACCCTCACTAAAGGGCTGAGTCTCAAAACCGCAATACACTGGTTGTATGGTCGAATAAGTTAA [A22] |  | activity [1]: 70%
B1 | binds | 
B2 | binds | 
AATTAACCCTCACTAAAGGG (ssDNA) [T3 primer negative control] |  | binding result ([2]; label: biotin): no binding
